Measured values as given in patent US20230406919A1 (Johns Hopkins, published 2023).

B1: Nb26 (VHH)
VHH: QVQLQESGGGSVQAGGSLRLSCVASGRTFSSYAMAWFRQVPGKEREFVGRISRSGGSTMYADSVKGRFDISRDNAKNTVFLQMSSLKPEDTAVYYCAAKAAVILTGIPDYWGQGTQVTVSS
notes: pHEN4 clone, HA-tagged, periplasmic extract; also called family 4
B2: CTNav1.9T (other)
chain: ENFNTATEESEDPLGEDDFDIFYEVWEKFDPEATQFIKYSALSDFADALPEPLRVAKPNKYQFLVMDLPMVSEDRLHCMDILFAFTARVLGGSDGLDSMKAMMEEKFMEANPLKKLYEPIVTTTKRKEEERGAAIIQKAFRKYMMKVTKGDQGDQNDLENGPHS
notes: range 1605-1768; GST tag cleaved
B3: CTNav1.9FL (other)
chain: ENFNTATEESEDPLGEDDFDIFYEVWEKFDPEATQFIKYSALSDFADALPEPLRVAKPNKYQFLVMDLPMVSEDRLHCMDILFAFTARVLGGSDGLDSMKAMMEEKFMEANPLKKLYEPIVTTTKRKEEERGAAIIQKAFRKYMMKVTKGDQGDQNDLENGPHSPLQTLCNGDLSSFGVAKGKVHCD
notes: range 1605-1791; GST tag cleaved

Columns and labels:
Calmodulin (CaM) [1] = biological target: T1, Calmodulin (CaM) (mammalian, UniProt P0DP23 1-149); assay: periplasmic-extract ELISA, 1:100 extract on 0.1 ug coated Ca2+CaM or apoCaM, anti-HA detection; positive above absorbance 2
T1 construct: also called free CaM; CaM alone

Calmodulin (CaM) [2] = biological target: T1, Calmodulin (CaM); assay: co-expression in E. coli, GST pull-down and anion exchange chromatography

| Binder | binding result (Calmodulin (CaM) [1]) | binding result (Calmodulin (CaM) [2]) |
| --- | --- | --- |
| B1 | binds |  |
| B2 |  | no binding |
| B3 |  | no binding |
